Source: patent US20110098443A1 (Janssen / Centocor, published 2011)

T1: mouse IL-18 (biotinylated control protein) (mouse, UniProt P70380 36-192, biotinylated (site not stated))
T1 sequence (looked up): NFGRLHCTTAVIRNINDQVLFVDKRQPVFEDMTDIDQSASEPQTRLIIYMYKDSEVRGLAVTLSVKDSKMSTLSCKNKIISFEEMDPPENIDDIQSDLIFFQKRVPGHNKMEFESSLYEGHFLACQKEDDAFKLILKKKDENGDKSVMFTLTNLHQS

T2: mouse IL-23 (biotinylated control protein) (mouse, UniProt Q9EQ14 22-196; P43432 23-335, biotinylated (site not stated))
T2 sequence (looked up) 1: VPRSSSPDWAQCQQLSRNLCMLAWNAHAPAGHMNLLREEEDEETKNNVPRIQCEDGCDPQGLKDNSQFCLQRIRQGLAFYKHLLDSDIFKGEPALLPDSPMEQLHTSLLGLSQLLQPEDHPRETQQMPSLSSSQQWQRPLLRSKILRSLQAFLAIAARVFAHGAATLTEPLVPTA
T2 sequence (looked up) 2: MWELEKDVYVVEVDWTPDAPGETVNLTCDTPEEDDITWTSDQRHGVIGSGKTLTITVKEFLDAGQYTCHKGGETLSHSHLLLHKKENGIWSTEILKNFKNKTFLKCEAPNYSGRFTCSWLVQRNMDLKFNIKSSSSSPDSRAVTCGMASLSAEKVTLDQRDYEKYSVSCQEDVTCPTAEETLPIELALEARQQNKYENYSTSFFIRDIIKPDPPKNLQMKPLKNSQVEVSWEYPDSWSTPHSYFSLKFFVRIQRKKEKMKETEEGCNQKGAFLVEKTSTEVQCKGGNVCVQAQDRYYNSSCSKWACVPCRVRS

T3: mouse IL-12 (biotinylated control protein) (mouse, UniProt P43431 23-215; P43432 23-335, biotinylated (site not stated))
T3 sequence (looked up) 1: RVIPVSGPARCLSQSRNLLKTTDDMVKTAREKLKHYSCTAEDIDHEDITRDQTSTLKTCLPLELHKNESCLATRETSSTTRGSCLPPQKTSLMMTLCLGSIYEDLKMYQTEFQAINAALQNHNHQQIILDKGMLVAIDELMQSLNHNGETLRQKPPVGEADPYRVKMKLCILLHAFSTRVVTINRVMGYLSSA
T3 sequence (looked up) 2: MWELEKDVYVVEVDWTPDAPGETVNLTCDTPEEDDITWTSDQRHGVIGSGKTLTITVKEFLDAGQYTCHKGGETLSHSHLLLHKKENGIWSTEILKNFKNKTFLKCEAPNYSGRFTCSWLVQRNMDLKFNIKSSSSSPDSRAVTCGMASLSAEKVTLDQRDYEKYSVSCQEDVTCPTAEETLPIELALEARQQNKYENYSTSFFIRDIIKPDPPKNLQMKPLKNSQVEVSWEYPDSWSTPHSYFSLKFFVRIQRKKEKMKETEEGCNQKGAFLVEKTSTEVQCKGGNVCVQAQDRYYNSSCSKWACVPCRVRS


Key:
[1] = biological target: T4, human GLP-1 receptor (full length, on cells) (human, UniProt P43220 24-463); experiment: calculated from the 125I GLP-1 displacement IC50, assuming a GLP-1 Kd of 3 nM and competitive inhibition; Ki derived from the IC50, assuming GLP-1 Kd of 3 nM and competitive inhibition
[2] = biological target: T4, human GLP-1 receptor (full length, on …); experiment: cell-based or functional assay
[3] = biological target: T4, human GLP-1 receptor (full length, on …); experiment: displacement of 3 nM 125I GLP-1 from HEK293F cells over-expressing human GLP-1R, overnight at 4 C; IC50 fitted directly from displacement of 3 nM 125I GLP-1
[4] = biological target: T1, mouse IL-18 (biotinylated control …); experiment: neutravidin capture ELISA
Protocol: (§1) The first characterization assay was a neutravidin capture assay. 96-well Maxisorp plates were coated (100 μl/well) with 5 μg/ml of neutravidin in PBS and were incubated at 4° C. overnight. Coated plates were washed with TBST. […] Plates were washed with TBST and blocked with 300 μl/well of 1× Chemiblocker for 1 hour at RT. Plates were washed with TBST. […] Plates were washed with TBST. Plates were treated for 1 hour at RT with 100 μl/well of goat anti-human IgG (H+L)-AP detection antibody diluted 1:5000 in TBST. AttoPhos substrate (1:5) detected AP activity.

[5] = biological target: T2, mouse IL-23 (biotinylated control …); experiment: neutravidin capture ELISA
Protocol: as §1

[6] = biological target: T3, mouse IL-12 (biotinylated control …); experiment: neutravidin capture ELISA
Protocol: as §1

[7] = biological target: rat transferrin (biotinylated control protein) (rat, UniProt P12346 20-698, biotinylated (site not stated)); experiment: neutravidin capture ELISA
Protocol: as §1

Chain of rat transferrin (biotinylated control protein) (P12346 20-698 limits assumed): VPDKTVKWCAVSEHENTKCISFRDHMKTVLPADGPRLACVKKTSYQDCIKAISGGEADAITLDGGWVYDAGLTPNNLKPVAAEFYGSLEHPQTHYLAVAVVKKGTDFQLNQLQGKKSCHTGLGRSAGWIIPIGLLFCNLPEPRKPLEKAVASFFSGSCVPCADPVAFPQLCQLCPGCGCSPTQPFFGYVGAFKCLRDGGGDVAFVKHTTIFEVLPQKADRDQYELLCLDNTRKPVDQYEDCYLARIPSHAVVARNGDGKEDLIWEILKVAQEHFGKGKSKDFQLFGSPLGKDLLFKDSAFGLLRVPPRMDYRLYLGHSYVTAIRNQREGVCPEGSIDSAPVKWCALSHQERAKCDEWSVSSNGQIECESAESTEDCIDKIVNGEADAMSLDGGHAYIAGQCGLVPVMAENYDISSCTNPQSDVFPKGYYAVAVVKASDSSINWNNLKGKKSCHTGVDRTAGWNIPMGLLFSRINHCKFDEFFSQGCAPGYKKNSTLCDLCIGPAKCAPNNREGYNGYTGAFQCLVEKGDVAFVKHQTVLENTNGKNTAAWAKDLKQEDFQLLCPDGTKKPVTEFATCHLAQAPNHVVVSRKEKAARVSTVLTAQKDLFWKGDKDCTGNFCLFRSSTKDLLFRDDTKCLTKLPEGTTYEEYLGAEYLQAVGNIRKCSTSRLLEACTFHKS

Binder	Ki [1] [nM]	IC50 of inhibition of GLP-1 dependent cAMP accumulation (0.3 nM GLP-1, HEK293F cells over-expressing human GLP-1R) [2] [nM]	IC50 [3] [nM]	binding result [4]	binding result [5]	binding result [6]	binding result [7]
PHD 191 (format not stated in the assay) (antibody, V domains shown) VH: QVELVQSGAEVKKPGSSVKVSCKASGGTFSAIHWVRQAPGQGLEWMGGIIPIFGMADYAQKFQGRVTITADESTSTAYMELSSLRSEDTAVYYCARTDYGFRALDYWGQGTLVTVSS VL: not shown	~20	3.3	48.5	–	–	–	–
PHD 191 mAb, human IgG1 / human kappa (antibody, V domains shown, The human IgG1/kappa format is inferred from the goat anti-human IgG (H+L) detection antibody) VH: QVELVQSGAEVKKPGSSVKVSCKASGGTFSAIHWVRQAPGQGLEWMGGIIPIFGMADYAQKFQGRVTITADESTSTAYMELSSLRSEDTAVYYCARTDYGFRALDYWGQGTLVTVSS VL: not shown	–	–	–	no binding (tested: starting at 5 µg/ml)	no binding (tested: starting at 5 µg/ml)	no binding (tested: starting at 5 µg/ml)	no binding (tested: starting at 5 µg/ml)
